# Measured values reported in article PMC4111287.
# Biological target: soluble human PEX3 (reading frame from G25, C235S) (human) (UniProt P56589)
# Experiment: native MS; PEX3 and PEX19 mixed in equimolar concentrations (5-10 µM), overnight at 4°C in 20 mM sodium phosphate, 300 mM NaCl, 1 mM DTT, pH 8.0; nano-electrospray on a QToF I under conditions that preserve non-covalent interactions; complex analysed at 10 µM
# Chain of UniProt P56589 (P56589 25-373 C235S): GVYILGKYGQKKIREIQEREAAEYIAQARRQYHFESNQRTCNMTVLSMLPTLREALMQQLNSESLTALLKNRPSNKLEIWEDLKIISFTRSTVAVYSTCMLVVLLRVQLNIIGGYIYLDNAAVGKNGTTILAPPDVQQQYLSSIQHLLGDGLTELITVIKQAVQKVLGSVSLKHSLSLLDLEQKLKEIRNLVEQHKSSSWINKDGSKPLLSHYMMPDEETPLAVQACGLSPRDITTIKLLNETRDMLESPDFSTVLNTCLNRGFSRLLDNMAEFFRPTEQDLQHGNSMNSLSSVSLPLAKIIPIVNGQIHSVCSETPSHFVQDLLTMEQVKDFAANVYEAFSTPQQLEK
substance,measurement,value
full length human PEX19 with an N-terminal His-tag (from UniProt P56589 1-373) (natural protein),stoichiometry N,1
